Test results taken from publication PMC9893541.

Molecular target: T1, GDF5 homodimer (human) (UniProt P43026)
T1 sequence: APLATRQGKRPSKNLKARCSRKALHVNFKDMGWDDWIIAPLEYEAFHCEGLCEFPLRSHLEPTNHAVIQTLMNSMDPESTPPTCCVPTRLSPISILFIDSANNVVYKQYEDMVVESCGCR

Noggin, sequence (Q13253 28-232): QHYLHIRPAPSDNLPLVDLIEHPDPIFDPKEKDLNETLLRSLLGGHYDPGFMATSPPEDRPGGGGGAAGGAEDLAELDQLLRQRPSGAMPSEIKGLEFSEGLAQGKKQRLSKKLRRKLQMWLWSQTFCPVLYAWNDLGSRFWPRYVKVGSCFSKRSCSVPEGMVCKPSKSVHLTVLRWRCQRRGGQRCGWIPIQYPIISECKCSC

Substance | IC50 of inhibition of signalling by 5 nM GDF5, luciferase reporter in BRITER osteoblast cells [nM]
Gremlin-2 (from UniProt O88273 22-168) (natural protein) | 38
Noggin (from UniProt Q13253 28-232) (natural protein) | 42
